Consider three molecules from PMC9672333 (2022).

This experiment deals with Wild type spike RBD (UniProt P0DTC2) (SARS-CoV-2, UniProt P0DTC2 319-541).

B1: Imdevimab (antibody, V domains shown)
VH: QVQLVESGGGVVQPGRSLRLSCAASGFTFSNYAMYWVRQAPGKGLEWVAVISYDGSNKYYADSVKGRFTISRDNSKNTLYLQMNSLRTEDTAVYYCASGSDYGDYLLVYWGQGTLVTVSS
VL: QSALTQPASVSGSPGQSITISCTGTSSDVGGYNYVSWYQQHPGKAPKLMIYDVSKRPSGVSNRFSGSKSGNTASLTISGLQSEDEADYYCNSLTSISTWVFGGGTKLTVL
With B1, the Kd (as a rule, the free concentration of one partner at which half of the binding sites on the other are occupied at equilibrium, for simple one-to-one binding) worked out at 65 nM.

B2: Casirivimab (antibody, V domains shown)
VH: QVQLVESGGGLVKPGGSLRLSCAASGFTFSDYYMSWIRQAPGKGLEWVSYITYSGSTIYYADSVKGRFTISRDNAKSSLYLQMNSLRAEDTAVYYCARDRGTTMVPFDYWGQGTLVTVSS
VL: DIQMTQSPSSLSASVGDRVTITCQASQDITNYLNWYQQKPGKAPKLLIYAASNLETGVPSRFSGSGSGTDFTFTISGLQPEDIATYYCQQYDNLPLTFGGGTKVEIK
B2 gave a dissociation constant Kd of 0.8 nM.

B3: Tixagevimab Biosimilar (antibody, V domains shown)
VH: QMQLVQSGPEVKKPGTSVKVSCKASGFTFMSSAVQWVRQARGQRLEWIGWIVIGSGNTNYAQKFQERVTITRDMSTSTAYMELSSLRSEDTAVYYCAAPYCSSISCNDGFDIWGQGTMVTVSS
VL: not shown
B3: the affinity, expressed as Kd, was 0.6 nM.
